{"source": "patent US8620595B2", "about": "“Methods for determining the retention of peptides in reverse phase chromatography using linear solvent strength theory” (University of Manitoba, priority 2010, dated 2013)", "key": {"[1]": {"test": "Isocratic elution measurement of slope S (log k vs. φ plots), RP-HPLC with UV detection", "format": "physicochemical", "conditions": "Luna C18(2) column, water/acetonitrile with 0.1% formic acid, 22-23° C.", "experimental": "(§1) Chromatography. All chromatographic experiments were conducted at a controlled temperature of 22-23° C. For isocratic measurement of the slope values, a micro-Agilent 1100 Series system (Agilent Technologies, Wilmington, Del.), was used with a 1 mm×100 mm 5 μm Luna C18(2) (Phenomenex, Torrance, Calif.) column and a UV detector operated at 214 nm. Both eluents A (water) and B (acetonitrile) contained 0.1% formic acid as ion-pairing modifier. Stock solutions of the 11 standard peptides (˜1 mg/ml) were prepared by dissolving each peptide in 1 ml of 0.1% FA in water or a 20% acetonitrile solution. Ten microliters of sample was injected. Individual peptides were diluted to provide ˜0.5-1 μg injection of each component using a 10 μl loop. The dead volume of the column and connecting tubings was determined by injecting a non-retained compound (water) and measuring the elution time of the negative peak at a 150 μL/min flow rate. Retention factors for isocratic elution were calculated using the formula: k=(tR−t0)/t0c; where tR is the retention time, t0 is the system (column and tubings) dead time, and t0c is the column dead time. Additional details of measuring S-values via constructing log k vs. φ plots are provided elsewhere.^24 The nano-LC MS/MS experiments were conducted using splitless Tempo LC system (Eksigent, Dublin, Calif.) with 20 μL sample injection via a 300 μm×5 mm PepMap100 (Dionex, Sunnyvale, Calif.) trap-column and a 100 μm×200 mm analytical column packed with 5 μm Luna C18(2) (Phenomenex, Torrance, Calif.). Tryptic digests of the mixtures were spiked with calibrating peptides (see Table 1) as described above, injected on the trap-column using buffer A as a carrier and separated using 0.1875, 0.375 and 0.75 percent acetonitrile per minute linear gradients starting from 0.5% acetonitrile at 500 nL/min flow rate. The composition of both eluents A and B was identical to one described above for normal-flow system. Gradient programs consisted of a 0.5-40% linear increase of buffer B in 213.2, 106.6 and 53.3 minutes, respectively. After each run the gradient columns were washed with 80% B for 3 minutes and equilibrated with the starting A:B ratio for 18 minutes.\nAccordingly, for the determination of S-values of the set of synthetic peptides we used an isocratic elution procedure, despite it being extremely labor intense.^23 Isocratic measurements consist of determining retention times of peptides at several constant acetonitrile concentrations and plotting experimental Eqn. 1 for each peptide.\nThese two ways of measurement have been combined to provide a highly accurate and fast way of determining S for an extensive sets of peptides (see FIG. 3). First, precise isocratic measurement of S is performed in normal flow conditions with UV detection for a set of synthetic “S-calibrating” peptides. Similar to the previously described peptide mixture P1-P6 designed to cover wide range of hydrophobicities, these peptides were chosen to cover wide range of S-values (Table 1). Second—a tryptic digest of the bovine proteins mixture (model mixture) is spiked with the “S-calibrating” peptides and run under two different gradient slopes in nano-flow RP-HPLC MS: 0.75 and 0.1875% acetonitrile per minute in our case. Third—retention times are assigned for all identified species. Fourth—retention time shifts in acetonitrile percentage (ACN %) units relative to P3 were determined as: Δ=(tR 0.75−tRP3 0.75)*0.75−(tR 0.1875−tRP3 0.1875)*0.1875 (3); where tR 0.75 and tRP3 0.75 are the retention times of any peptide and reference P3 at 0.75% per minute, and tR 0.1875 and tRP3 0.1875 are the retention times of any peptide and reference P3 at 0.1875% acetonitrile per minute gradient, respectively. Fifth—an experimental Δ vs. S curve was plotted for S-calibrating peptides (FIG. 3). Sixth—S values were extracted from this dependence for all peptides observed in both nano-RP-HPLC MS runs by extrapolation of experimental Δ on this plot."}, "[2]": {"test": "Determination of S from retention time shift Δ relative to P3 at two gradient slopes, nano-RP-HPLC MS of spiked tryptic digest", "format": "physicochemical", "conditions": "for Slope (experimental): LC-MS runs of model peptide mixture; for experimental S-value: model peptide mixture (tryptic digest of bovine proteins), 0.75 and 0.1875% acetonitrile per minute gradients, S from Δ vs. S curve of S-calibrating peptides", "experimental": "Proteins and protein digestion. Tryptic digests of two different protein mixtures were utilized. The “test peptide mixture” contained human proteins: albumin, transferrin, fibrinogen. The “model peptide mixture” contained bovine proteins: albumin, transferrin, fibrinogen, catalase. Equimolar mixtures of the proteins were prepared, reduced with DTT, alkylated with iodoacetamide and digested with sequencing-grade modified trypsin (Promega, Madison, Wis.). Prior to nano-LC MS/MS analysis, mixtures were diluted with buffer A (0.1% formic acid in water) and spiked with the 6 standard peptides P1-P6^24 for test mixture and the set of 11 model peptides (described elsewhere^23) for a model mixture. All dilutions were performed to provide an injection of ˜100 fmole of each component into the nanoRP-HPLC MS system.\nas §1\nMass spectrometry. A QStar Elite mass spectrometer (Applied Biosystems, Foster City, Calif.) equipped with a MicrolonSpray II source was used in standard MS/MS information dependent acquisition (IDA) mode for LC-ESI analyses. Protein identification was performed using Protein Pilot 3.0 (Applied Biosystems, Foster City, Calif.) with a restricted database containing target protein sequences and the sequences of standard peptides. Retention times of identified species (peak maxima) were assigned manually.\nThese two ways of measurement have been combined to provide a highly accurate and fast way of determining S for an extensive sets of peptides (see FIG. 3). First, precise isocratic measurement of S is performed in normal flow conditions with UV detection for a set of synthetic “S-calibrating” peptides. […]"}}}
{"substance": "LAGGGSASSSADAAAFR [Peptide 9, synthetic S-calibrating peptide]", "values": [{"measurement": "Slope (S in the basic LSS equation)", "setting": "[1]", "result": 34.8}]}
{"substance": "LAGGGSASSSAHAAAFR [Peptide 11, synthetic S-calibrating peptide]", "values": [{"measurement": "Slope (S in the basic LSS equation)", "setting": "[1]", "result": 44.66}]}
{"substance": "LASAADFR [Peptide 6, synthetic S-calibrating peptide]", "values": [{"measurement": "Slope (S in the basic LSS equation)", "setting": "[1]", "result": 27.07}]}
{"substance": "LASAAHFR [Peptide 7, synthetic S-calibrating peptide]", "values": [{"measurement": "Slope (S in the basic LSS equation)", "setting": "[1]", "result": 35.59}]}
{"substance": "LGGGGGGDFR [Peptide 1, synthetic S-calibrating peptide]", "values": [{"measurement": "Slope (S in the basic LSS equation)", "setting": "[1]", "result": 28.2}]}
{"substance": "LLGGGGDFR [Peptide 2]", "values": [{"measurement": "Slope (S in the basic LSS equation)", "setting": "[1]", "result": 24.76}, {"measurement": "Slope (S in the basic LSS equation)", "setting": "[1]; listed as P3", "result": 24.76}]}
{"substance": "LLGGSLSSLHAAFR [Peptide 10, synthetic S-calibrating peptide]", "values": [{"measurement": "Slope (S in the basic LSS equation)", "setting": "[1]", "result": 33.81}]}
{"substance": "LLLGGDFR [Peptide 3, synthetic S-calibrating peptide]", "values": [{"measurement": "Slope (S in the basic LSS equation)", "setting": "[1]", "result": 21.46}]}
{"substance": "LLLLDFR [Peptide 4, synthetic S-calibrating peptide]", "values": [{"measurement": "Slope (S in the basic LSS equation)", "setting": "[1]", "result": 21.78}]}
{"substance": "LLLLLDFR [Peptide 5, synthetic S-calibrating peptide]", "values": [{"measurement": "Slope (S in the basic LSS equation)", "setting": "[1]", "result": 22.76}]}
{"substance": "LLSLADFG [Peptide 8, synthetic S-calibrating peptide]", "values": [{"measurement": "Slope (S in the basic LSS equation)", "setting": "[1]", "result": 19.2}]}
{"substance": "TVMENFVAFVDK", "values": [{"measurement": "Slope (experimental)", "setting": "[2]; experimental S value", "result": 28.849}]}
{"substance": "TYDSYLGDDYVR", "values": [{"measurement": "Slope (experimental)", "setting": "[2]; experimental S value", "result": 31.66}]}
{"substance": "VDLEDYK", "values": [{"measurement": "Slope (experimental)", "setting": "[2]; experimental S value", "result": 28.987}]}
{"substance": "VDSALYLGSR", "values": [{"measurement": "Slope (experimental)", "setting": "[2]; experimental S, formic acid", "result": 27.122}]}
{"substance": "VFEHIGK", "values": [{"measurement": "Slope (experimental)", "setting": "[2]; experimental S value", "result": 34.229}]}
{"substance": "VFEHIGKR", "values": [{"measurement": "Slope (experimental)", "setting": "[2]; experimental S value", "result": 41.112}]}
{"substance": "VGDANPALQK", "values": [{"measurement": "Slope (experimental)", "setting": "[2]; experimental S value", "result": 38.388}]}
{"substance": "VHKECCHGDLLECADDR [fragment from bovine albumin]", "values": [{"measurement": "Slope (experimental)", "setting": "[2]; experimental S, formic acid", "result": 42.014}, {"measurement": "experimental S-value", "setting": "[2]; formic acid", "result": "~42"}]}
{"substance": "VHKECCHGDLLECADDRADLAK", "values": [{"measurement": "Slope (experimental)", "setting": "[2]; experimental S, formic acid", "result": 44.599}]}
{"substance": "VIEQVQR", "values": [{"measurement": "Slope (experimental)", "setting": "[2]; experimental S value", "result": 38.258}]}
{"substance": "VLDALDSIK", "values": [{"measurement": "Slope (experimental)", "setting": "[2]; experimental S value", "result": 26.128}]}
{"substance": "VLNEEQR", "values": [{"measurement": "Slope (experimental)", "setting": "[2]; experimental S, formic acid", "result": 40.229}]}
{"substance": "VPQVSTPTLVEVSR", "values": [{"measurement": "Slope (experimental)", "setting": "[2]; experimental S value", "result": 33.745}]}
{"substance": "VTALYEGFTVQNEANK", "values": [{"measurement": "Slope (experimental)", "setting": "[2]; experimental S, formic acid", "result": 30.77}]}
{"substance": "VTGENDKYR [moderately sized, hydrophilic tryptic species of the model peptide mixture]", "values": [{"measurement": "Slope (experimental)", "setting": "[2]; experimental S, formic acid", "result": 49.044}, {"measurement": "experimental S-value", "setting": "[2]; formic acid", "result": 49.0}]}
{"substance": "VVQLEANCQEPCQDTVK", "values": [{"measurement": "Slope (experimental)", "setting": "[2]; experimental S value", "result": 39.579}]}
{"substance": "VVWCAVGPEEQK", "values": [{"measurement": "Slope (experimental)", "setting": "[2]; experimental S value", "result": 29.603}]}
{"substance": "VVWCAVGPEEQKK", "values": [{"measurement": "Slope (experimental)", "setting": "[2]; experimental S, formic acid", "result": 33.2}]}
{"substance": "VWPHGDYPLIPVGK", "values": [{"measurement": "Slope (experimental)", "setting": "[2]; experimental S value", "result": 34.183}]}
{"substance": "VYCDMK", "values": [{"measurement": "Slope (experimental)", "setting": "[2]; experimental S value", "result": 35.652}]}
{"substance": "WCAIGHQER", "values": [{"measurement": "Slope (experimental)", "setting": "[2]; experimental S value", "result": 35.992}]}
{"substance": "WCTISQPEWFK", "values": [{"measurement": "Slope (experimental)", "setting": "[2]; experimental S value", "result": 30.438}]}
{"substance": "WCTISTHEANK", "values": [{"measurement": "Slope (experimental)", "setting": "[2]; experimental S, formic acid", "result": 37.234}]}
{"substance": "WDPYK", "values": [{"measurement": "Slope (experimental)", "setting": "[2]; experimental S value", "result": 26.36}]}
{"substance": "WQWR", "values": [{"measurement": "Slope (experimental)", "setting": "[2]; experimental S value", "result": 22.398}]}
{"substance": "WYSMK", "values": [{"measurement": "Slope (experimental)", "setting": "[2]; experimental S value", "result": 25.257}]}
{"substance": "WYSMKK", "values": [{"measurement": "Slope (experimental)", "setting": "[2]; experimental S value", "result": 33.268}]}
{"substance": "YAAELHLVHWNTK", "values": [{"measurement": "Slope (experimental)", "setting": "[2]; experimental S value", "result": 36.188}]}
{"substance": "YCGVPGEYWLGNDR", "values": [{"measurement": "Slope (experimental)", "setting": "[2]; experimental S value", "result": 29.184}]}
{"substance": "YETLISTHESTIR", "values": [{"measurement": "Slope (experimental)", "setting": "[2]; experimental S value", "result": 36.09}]}
{"substance": "YICDNQDTISSK", "values": [{"measurement": "Slope (experimental)", "setting": "[2]; experimental S value", "result": 37.666}]}
{"substance": "YLTTLK", "values": [{"measurement": "Slope (experimental)", "setting": "[2]; experimental S value", "result": 27.604}]}
{"substance": "YLYEIAR", "values": [{"measurement": "Slope (experimental)", "setting": "[2]; experimental S value", "result": 27.362}]}
{"substance": "YNGVFQECCQAEDK", "values": [{"measurement": "Slope (experimental)", "setting": "[2]; experimental S, formic acid", "result": 32.73}]}
{"substance": "YQLSVSK", "values": [{"measurement": "Slope (experimental)", "setting": "[2]; experimental S value", "result": 31.531}]}
{"substance": "YYGYTGAFR", "values": [{"measurement": "Slope (experimental)", "setting": "[2]; experimental S value", "result": 29.343}]}
